This data set concerns the target T1, TatD (Escherichia coli K12, UniProt P27859 1-260).
T1 sequence: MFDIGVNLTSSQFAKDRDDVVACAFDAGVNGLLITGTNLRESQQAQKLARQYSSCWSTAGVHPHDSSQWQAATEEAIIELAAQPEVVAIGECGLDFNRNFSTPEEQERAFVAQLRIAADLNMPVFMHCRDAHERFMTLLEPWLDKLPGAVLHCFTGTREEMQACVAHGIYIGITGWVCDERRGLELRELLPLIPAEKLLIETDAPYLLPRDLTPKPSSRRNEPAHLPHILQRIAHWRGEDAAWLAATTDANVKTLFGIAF
The data set is described as follows: X-ray crystallography 2.9 A; no metal ion identified; only trinucleotide GCT seen, weak density, occupancy 0.7, inactive conformation, likely cleaved product; Co-crystals: TatD 7-8 mg/ml in 10 mM MOPS, 250 mM NaCl, DNA at 1:1.2 (TatD:DNA); reservoir 4% Tacsmate pH 4, 12% PEG 3350; temperature not stated. Nuclease assays (turnover only) not listed. The settings on record: protein: recombinant; tags: C-terminal His-tag (pET22b); single strand; only 5'-GCT-3' modelled (digestion product or ordered 3' end).

B1: 8-nt ssDNA used for co-crystallization (ssDNA)
DNA: GCTTAGCT
As for B1, the binding result is listed as “binds”.

The values above are taken from article PMC4176340, “Structure and function of TatD exonuclease in DNA repair”.
